Experimental findings from US20230102344A1 are described below.

Substitutions are numbered along the chain they refer to.

Test [1] concerns the target cynomolgus TCRvβ (BJM0847) (cynomolgus). As to the kind of experiment: SPR (Biacore): antibody captured on Protein L chip, BJM0847 as analyte, 1:1 fit.
Test [2] deals with human TCRvβ (BIM0444) (human). As to the kind of experiment: SPR (Biacore): antibody captured via anti-human Fc on CM5, BIM0444 as analyte, 1:1 fit.
In test [3] the target is human TCRvβ (BIM0444) (human). As to the kind of experiment: SPR (Biacore), Table 21; set-up not restated. A general note: Surface plasmon resonance follows binding to a sensor surface in real time, without labels.
The target in test [4] is cynomolgus TCRvβ (BJM0847) (cynomolgus). Nature of the test: SPR (Biacore), Table 21; set-up not restated.
For test [5] the target is unchanged. As to the kind of experiment: SPR (Biacore): antibody amine-coupled to CM5, BJM0847 as analyte, 1:1 fit.
Test [6] shares this target. As to the kind of experiment: SPR (Biacore), comparison with the parental antibody.

Sequence of human TCRvβ (BIM0444) (human) (A0A0K0K1A5 22-114): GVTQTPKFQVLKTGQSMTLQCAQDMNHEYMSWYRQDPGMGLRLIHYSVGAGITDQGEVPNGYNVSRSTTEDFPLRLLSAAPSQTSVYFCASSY

B1: BJM0897 (antibody, V domains shown)
VH: QVQLVQSGAEVKKPGSSVKVSCKASGTDFKLTYIHWVRQAPGQGLEWMGRIFPGSGNVKYNEKFKGRVTITADTSTSTAYMELSSLRSEDTAVYYCAGSYYSYDVLDYWGQGTTVTVSS
VL: DIQMTQSPSFLSASVGDRVTITCKASQNVDNRVAWYQQKPGKAPKALIYSSSHRYKGVPSRFSGSGSGTEFTLTISSLQPEDFATYFCQQFKSYPLTFGQGTKLEIK
In general, Kd refers to the constant that tells how readily two partners part at equilibrium. Low values mean a tighter complex, high ones a looser complex. For the molecule B1, the values for the dissociation constant (Kd) in test [1] and in test [2] were 69 nM and 7.2 nM, respectively.

B2: BJM0912 (antibody, V domains shown)
VH: B1 VH with T27H, K30H, T32W, I51V, F52S, P53A
VL: B1 VL with R32K, Y36H
Turning to B2, the Kd stood at 326 nM in test [1] and 28 nM in test [2].

B3: BJM0899 (antibody, V domains shown)
VH: B1 VH with T27H, K30R, F52S, P53A
VL: B1 VL with D30A, N31D
Consider B3, for which the figures for the dissociation constant Kd in test [1] and in test [2] were 130 nM and 3.7 nM, respectively.

B4: BJM0901 (bispecific antibody, not shown: a dimerising Fc or GST; large carriers)
heavy: QVQLVQSGAEVKKPGSSVKVSCKASGTDFKLTYIHWVRQAPGQGLEWMGRIFPGSGNVKYNEKFKGRVTITADTSTSTAYMELSSLRSEDTAVYYCAGSYYSYDVLDYWGQGTTVTVSSGGGGSGGGGSGGGGSGGGGSDIQMTQSPSFLSASVGDRVTITCKASQNVDNRVAWYQQKPGKAPKALIYSSSHRYKGVPSRFSGSGSGTEFTLTISSLQPEDFATYFCQQFKSYPLTFGQGTKLEIKGGGGSQVQLVQSGAEVKKPGSSVKVSCKASGYTFTDYNMHWVRQAPGQGLEWIGYIYPYNGGTGYNQKFKSKATITADESTNTAYMELSSLRSEDTAVYYCARGRPAMDYWGQGTLVTVSS
light: DIQMTQSPSSLSASVGDRVTITCRASESVDNYGISFMNWFQQKPGKAPKLLIYAASNQGSGVPSRFSGSGSGTDFTLTISSLQPDDFATYYCQQSKEVPWTFGQGTKVEIK
B4: the equilibrium dissociation constant (Kd) worked out at 7.09 nM in test [3] and 55 nM in test [4].

B5: BJM0502 (scFv, part only; not given: Fc scaffold making it bivalent, part only)
scFv, part: QVQLVQSGAEVKKPGSSVKVSCKASGHDFHLWYIHWVRQAPGQGLEWMGRVSAGSGNVKYNEKFKGRVTITADTSTSTAYMELSSLRSEDTAVYYCAGSYYSYDVLDYWGQGTTVTVSSGGGGSGGGGSGGGGSGGGGSDIQMTQSPSFLSASVGDRVTITCKASQNVDNKVAWHQQKPGKAPKALIYSSSHRYKGVPSRFSGSGSGTEFTLTISSLQPEDFATYFCQQFKSYPLTFGQGTKLEIK
On to B5, for which the dissociation constant Kd was determined as 387 nM in test [1] and 20 nM in test [2].

B6: A-H.63 (scFv)
scFv: B5 scFv, part with H30R, W32T, S52Y, V58T, G98V, D169E, N170D, K171R, A173V
In the case of B6, the results for the equilibrium dissociation constant (Kd) in test [1] and in test [2] were 5.8 nM and 0.274 nM, respectively.

B7: A-H.23 (scFv, not shown: a dimerising Fc or GST)
scFv: B5 scFv, part with H30R, W32T, V51I, D169A, N170D, K171R, H175Y
In turn, B7 showed a Kd in test [2] of 1.7 nM.

B8: A-H.13 (scFv)
scFv: B5 scFv, part with H27T, H30K, W32T, V51I, S52F, A53P, K171R, H175Y
Turning to B8, the Kd in test [2] amounted to 3.8 nM; in test [5], 173 nM.

B9: A-H.64 (scFv)
scFv: B5 scFv, part with H30K, W32T, V58T, G98V, D169A, N170D, K171R, A173V
Regarding B9, the dissociation constant (Kd) in test [1] stood at 1 nM; in test [2] it was 0.486 nM.

B10: A-H.24 (scFv)
scFv: B5 scFv, part
In turn, B10 displayed a dissociation constant (Kd) in test [2] of 12 nM. In other words, the double-digit nanomolar range.

B11: A-H.65 (scFv)
scFv: B5 scFv, part with H30K, W32T, V51I, V58T, G98V, D169G, N170D, K171R, A173V
Take B11: the values for the Kd in test [1] and in test [2] were 0.725 nM and 0.396 nM, respectively.

B12: A-H.62 (scFv)
scFv: B5 scFv, part with H30R, W32T, G98V, D169A, N170D, K171R, A173V
With B12, the Kd in test [1] was 0.766 nM; in test [2], 0.447 nM.

B13: A-H.68 (scFv, not shown: a dimerising Fc or GST)
scFv: B5 scFv, part with H30R, W32T, V51I, G98V, D169A, N170D, K171R, H175Y
In the case of B13, the dissociation constant Kd in test [2] was 0.829 nM; in test [5], 59 nM.

B14: A-H.61 (scFv)
scFv: B5 scFv, part with H30K, W32T, V58T, G98V, K171R
Take B14: the dissociation constant (Kd) in test [1] stood at 0.607 nM; in test [2], 0.349 nM.

B15: A-H.58 (scFv)
scFv: B5 scFv, part with H30R, W32T, G98V, D169G, K171R, A173V
Turning to B15, the Kd in test [1] was determined as 0.158 nM; in test [2], 0.491 nM.

B16: A-H.66 (scFv)
scFv: B5 scFv, part with H30K, W32T, V51I, S52Y, V58T, G98V, D169G, N170D, K171R, A173V
As to B16, the values for the equilibrium dissociation constant (Kd) in test [1] and in test [2] were 2.2 nM and 0.338 nM, respectively.

B17: A-H.57 (scFv)
scFv: B5 scFv, part with H30R, W32T, V58T, G98V, D169G, N170D, K171R, A173V
Regarding B17, the Kd in test [1] was 0.762 nM; in test [2], 0.469 nM.

B18: A-H.60 (scFv)
scFv: B5 scFv, part with H30K, W32T, V58T, G98V, D169G, N170D, K171R
As to B18, the Kd stood at 1.6 nM in test [1] and 0.445 nM in test [2].

B19: BJM0498 (scFv, part only; not given: Fc scaffold making it bivalent, part only)
scFv, part: B5 scFv, part with H27T, H30K, W32T, V51I, S52F, A53P, K171R, H175Y
For B19, the Kd was determined as 86 nM in test [1], 7.9 nM in test [2], 7.9 nM in test [3] and 86 nM in test [4]. In test [6], the fold improvement of affinity compared to the parental antibody worked out at 6 fold.

B20: A-H.67 (scFv)
scFv: B5 scFv, part with H27T, H30K, W32T, V51I, S52F, A53P, G98V, K171R, H175Y
With B20, in test [2], the dissociation constant (Kd) was found to be 20 nM.

B21: A-H.59 (scFv)
scFv: B5 scFv, part with H30R, W32T, V51I, S52Y, G98V, D169A, N170D, K171R, A173V
As for B21, the Kd in test [1] turned out to be 5 nM; in test [2] it was 0.323 nM.

B22: BJM0501 (scFv, part only; not given: Fc scaffold making it bivalent, part only)
scFv, part: B5 scFv, part with H30R, W32T, V51I, D169A, N170D, K171R, H175Y
As to B22, the Kd turned out to be 87 nM in test [1] and 4.1 nM in test [2]. In addition, in test [6], the fold improvement of affinity compared to the parental antibody amounted to 6 fold.
